Data from article PMC6338834.

B1: 5' flap lagging strand oligo (ssDNA)
DNA: TTTTTTTTTTTTTTTTTTTTTTTTTTTTTTTTTTTTTTTTTTTTTTTTTGACGCTGCCGAATTCTGGCTTGCTAGGACATTACAGGATCGTTCGGTCTC
modifications: last 5 linkages at 3' end thiodiester (phosphorothioate)
B2: 3' FITC 60mer ssDNA (ssDNA)
DNA: TTTTTTTTTTTTTTTTTTTTTTTTTTTTTTGGTGAGGGTTGGGAAGTGGAAGGATGGGCT

Assays:
RPA = RPA (Saccharomyces cerevisiae, UniProt P22336;P26754;P26755 1-621;1-273;1-122); test: EMSA
Mcm10 = target: T1, Mcm10 (Saccharomyces cerevisiae, UniProt P32354 1-571); test: fluorescence anisotropy
T1 sequence: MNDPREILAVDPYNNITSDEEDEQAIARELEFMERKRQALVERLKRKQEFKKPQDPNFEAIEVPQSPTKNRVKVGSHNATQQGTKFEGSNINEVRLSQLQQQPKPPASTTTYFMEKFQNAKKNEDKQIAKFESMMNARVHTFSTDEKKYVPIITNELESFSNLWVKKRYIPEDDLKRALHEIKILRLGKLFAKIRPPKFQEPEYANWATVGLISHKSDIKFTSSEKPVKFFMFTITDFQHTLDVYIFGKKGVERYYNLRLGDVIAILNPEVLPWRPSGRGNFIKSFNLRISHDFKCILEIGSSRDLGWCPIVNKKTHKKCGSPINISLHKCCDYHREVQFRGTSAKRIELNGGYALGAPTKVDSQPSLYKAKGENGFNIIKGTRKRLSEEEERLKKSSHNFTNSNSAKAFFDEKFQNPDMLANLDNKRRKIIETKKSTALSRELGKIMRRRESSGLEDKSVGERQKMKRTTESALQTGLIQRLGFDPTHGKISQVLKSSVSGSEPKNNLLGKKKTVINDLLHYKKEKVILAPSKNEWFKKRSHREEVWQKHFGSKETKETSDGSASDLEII

RPA, sequence (P22336 whole entry, chain 1 of 3): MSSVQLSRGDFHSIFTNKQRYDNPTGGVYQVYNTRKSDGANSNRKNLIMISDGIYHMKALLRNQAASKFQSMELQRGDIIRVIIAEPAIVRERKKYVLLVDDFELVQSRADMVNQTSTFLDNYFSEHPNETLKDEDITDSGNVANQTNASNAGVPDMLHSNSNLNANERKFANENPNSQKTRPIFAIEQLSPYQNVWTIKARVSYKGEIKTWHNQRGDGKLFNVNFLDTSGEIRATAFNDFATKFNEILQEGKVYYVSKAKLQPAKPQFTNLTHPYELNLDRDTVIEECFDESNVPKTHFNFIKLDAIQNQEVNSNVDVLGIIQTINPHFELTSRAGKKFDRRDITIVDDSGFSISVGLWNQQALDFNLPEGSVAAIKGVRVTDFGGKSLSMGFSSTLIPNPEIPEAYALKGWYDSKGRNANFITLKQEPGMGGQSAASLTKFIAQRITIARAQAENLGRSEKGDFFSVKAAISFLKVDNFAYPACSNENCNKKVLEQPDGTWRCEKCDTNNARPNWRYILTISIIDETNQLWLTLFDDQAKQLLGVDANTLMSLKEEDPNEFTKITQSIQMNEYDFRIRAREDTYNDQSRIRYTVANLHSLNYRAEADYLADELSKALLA
RPA, sequence (P26754 whole entry, chain 2 of 3): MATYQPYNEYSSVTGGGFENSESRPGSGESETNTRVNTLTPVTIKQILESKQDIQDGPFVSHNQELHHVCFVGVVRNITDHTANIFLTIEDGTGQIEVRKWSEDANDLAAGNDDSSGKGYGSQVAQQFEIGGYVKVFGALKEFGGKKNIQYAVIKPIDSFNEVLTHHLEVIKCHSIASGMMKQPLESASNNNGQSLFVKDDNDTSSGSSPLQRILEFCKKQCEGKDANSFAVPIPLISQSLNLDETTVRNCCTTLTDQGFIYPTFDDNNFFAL
RPA, sequence (P26755 whole entry, chain 3 of 3): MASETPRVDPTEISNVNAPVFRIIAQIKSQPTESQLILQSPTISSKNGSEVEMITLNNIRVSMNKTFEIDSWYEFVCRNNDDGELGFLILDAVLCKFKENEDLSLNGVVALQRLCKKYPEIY

Row | Binder | binding result (RPA) | Kd (Mcm10) [nM]
1 | B1 | binds | 
2 | B2 |  | 50
